From paper PMC6529630 (mBio, 2019) come the findings set out here.

The target in data set [1] is T1, GlnA4 (gamma-glutamylethanolamide synthetase) (Streptomyces coelicolor, UniProt O88070).
T1 construct: His-GlnA4
T1 sequence (O88070 1-462): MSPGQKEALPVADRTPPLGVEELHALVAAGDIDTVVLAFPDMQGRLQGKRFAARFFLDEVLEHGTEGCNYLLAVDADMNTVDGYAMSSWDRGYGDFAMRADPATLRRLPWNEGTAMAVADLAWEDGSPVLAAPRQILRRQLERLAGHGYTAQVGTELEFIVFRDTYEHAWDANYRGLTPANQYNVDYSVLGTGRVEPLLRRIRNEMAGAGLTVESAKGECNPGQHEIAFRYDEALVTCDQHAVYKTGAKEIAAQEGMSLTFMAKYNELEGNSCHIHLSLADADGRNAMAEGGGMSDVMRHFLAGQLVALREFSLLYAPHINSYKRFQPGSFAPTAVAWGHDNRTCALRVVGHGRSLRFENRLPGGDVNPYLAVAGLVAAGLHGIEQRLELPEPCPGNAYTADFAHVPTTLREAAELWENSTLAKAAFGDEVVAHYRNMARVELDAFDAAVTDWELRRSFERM
The experiment in a line: HPLC/ESI-MS detection of reaction product of purified His-GlnA4. The class given is biochemical.

Data set [2] deals with T1, GlnA4 (gamma-glutamylethanolamide synthetase). The experiment in a line: Pi-release inhibition assay with purified His-GlnA4, Ki from IC50 (Cheng-Prusoff); weak. Format: biochemical.
Substrate in data set [3]: NCCO
Description: purified protein. The following applies: ATP, Mg2+ (MgCl2).

Substrate in data set [4]: N[C@@H](CCC(=O)O)C(=O)O
Description: purified protein. The following applies: ATP, Mg2+ (MgCl2).

Substrate in data set [5]: Nc1ncnc2c1ncn2[C@@H]1O[C@H](COP(=O)(O)OP(=O)(O)OP(=O)(O)O)[C@@H](O)[C@H]1O
Description: Pi-release enzyme kinetics with purified His-GlnA4. The class given is biochemical, Streptomyces coelicolor. The following applies: Mg2+ (MgCl2).

On to `N[C@@H](CCC(=O)NCCO)C(=O)O` [gamma-glutamylethanolamide], for which, in data set [1], the “HPLC/ESI-MS detection of reaction product of purified His-GlnA4” value is “GlnA4 is a functional gamma-glutamylethanolamide synthetase that uses glutamate and ethanolamine as substrates to generate gamma-glutamylethanolamide”.

What is called Ki is a measure of affinity in units of concentration, obtained from inhibition or displacement. Molecule `CS(=N)(=O)CC[C@H](N)C(=O)O` (some centres unmarked) [methionine sulfoximine] showed an inhibition constant (Ki) in data set [2] of around 11 mM.

B1: GlnA4 (gamma-glutamylethanolamide synthetase) (Streptomyces coelicolor A3(2)) (protein)
chain: T1 sequence (O88070 1-462)
notes: His-GlnA4
As usually defined, the Km is the substrate concentration at which the rate is half of its maximum. As to B1, the Km is reported as 0.47 mM in data set [3], 85.41 mM in data set [4] and 2.5 mM in data set [5].
